Results on three molecules are retold here after patent US20260308258 (published 2026).

The target of assay [1] is CD16a-F ECD (human). The experiment in a line: ELISA, + 10 mg/ml hIgG. On the technique in general: ELISA stands for enzyme-linked immunosorbent assay.
The target of assay [2] is T1, CD16b-NA2 ECD (human).
T1 chain: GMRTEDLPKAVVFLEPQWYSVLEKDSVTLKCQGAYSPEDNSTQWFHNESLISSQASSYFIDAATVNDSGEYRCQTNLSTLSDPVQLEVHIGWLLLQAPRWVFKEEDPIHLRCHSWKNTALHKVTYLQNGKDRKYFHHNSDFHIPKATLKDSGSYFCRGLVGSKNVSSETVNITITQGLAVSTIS
The experiment in a line: ELISA.

Assay [3] has as its target CD16a-V ECD (human). Description: ELISA, + 10 mg/ml hIgG.
Assay [4] has as its target CD16a-V ECD (human). Description: ELISA.
The target of assay [5] is CD16a-F ECD-Fc (human). The experiment in a line: ELISA.
Assay [6] addresses T2, CD16b-NA1 ECD (human).
T2 chain: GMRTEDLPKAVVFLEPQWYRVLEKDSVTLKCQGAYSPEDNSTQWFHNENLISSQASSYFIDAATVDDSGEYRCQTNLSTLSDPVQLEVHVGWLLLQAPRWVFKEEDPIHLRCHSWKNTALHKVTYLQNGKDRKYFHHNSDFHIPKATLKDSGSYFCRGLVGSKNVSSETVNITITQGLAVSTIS
Description: ELISA.

Assay [7] deals with CD16a-F ECD (human). Description: ELISA.
Assay [8] concerns the target CD16a-V ECD (human). The experiment in a line: ELISA. This is another data set of the same source.
Assay [9] deals with T1, CD16b-NA2 ECD. Description: ELISA.
Assay [10] addresses CD16a-V ECD (human). Description: BLI, 30C. In general terms: Biolayer interferometry detects binding as a change in optical thickness at a sensor tip.
The target of assay [11] is T3, CD16b-NA1 ECD deglycosylated (human).
T3 chain: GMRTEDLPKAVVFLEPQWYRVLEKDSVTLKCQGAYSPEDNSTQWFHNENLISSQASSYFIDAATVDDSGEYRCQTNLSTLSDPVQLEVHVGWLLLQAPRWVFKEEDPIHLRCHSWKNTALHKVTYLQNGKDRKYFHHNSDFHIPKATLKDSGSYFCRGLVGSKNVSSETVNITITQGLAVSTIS
The experiment in a line: ELISA.

The target in assay [12] is CD16a-F ECD (human). Description: BLI, 30C.
Assay [13] has as its target CD16a-F D82N (human). The experiment in a line: FACS. On the technique in general: A flow cytometer gives signals particle by particle.
Assay [14] deals with T4, Cyno CD16a ECD (cynomolgus).
T4 chain: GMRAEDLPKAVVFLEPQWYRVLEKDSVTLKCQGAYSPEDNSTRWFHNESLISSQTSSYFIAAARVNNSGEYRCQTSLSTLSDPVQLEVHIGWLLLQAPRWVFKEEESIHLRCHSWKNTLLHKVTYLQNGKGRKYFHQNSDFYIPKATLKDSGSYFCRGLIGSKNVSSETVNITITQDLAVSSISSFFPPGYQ
The experiment in a line: BLI, 30C.

Assay [15] has as its target CD16a-F ECD (human). The experiment in a line: ELISA. The source holds these as a separate data set.
Assay [16] concerns the target T1, CD16b-NA2 ECD. Description: ELISA.
For assay [17], the target named is CD16a-V ECD deglycosylated (human). The experiment in a line: ELISA.
In assay [18] the target is CD16a-F ECD (human). Description: ELISA. The source holds these as a separate data set.
The target of assay [19] is T5, Mouse FcgRIV (mouse, UniProt A0A0B4J1G0).
T5 chain: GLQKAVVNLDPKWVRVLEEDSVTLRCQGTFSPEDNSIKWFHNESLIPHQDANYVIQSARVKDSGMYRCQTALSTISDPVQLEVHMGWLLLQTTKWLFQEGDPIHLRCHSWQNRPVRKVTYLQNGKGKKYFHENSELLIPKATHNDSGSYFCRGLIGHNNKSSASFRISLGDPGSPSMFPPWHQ
The experiment in a line: BLI, 30C.

In assay [20] the target is CD16a-F ECD deglycosylated (human). The experiment in a line: ELISA.
Assay [21] has as its target T6, CD16b on neutrophils (human, UniProt O75015).
T6 chain: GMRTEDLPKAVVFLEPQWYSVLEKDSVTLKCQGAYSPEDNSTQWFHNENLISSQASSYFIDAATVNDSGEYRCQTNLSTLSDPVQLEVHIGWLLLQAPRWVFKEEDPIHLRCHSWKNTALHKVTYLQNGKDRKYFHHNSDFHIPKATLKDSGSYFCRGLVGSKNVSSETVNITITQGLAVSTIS
Description: FACS, neutrophils.

The target of assay [22] is T1, CD16b-NA2 ECD. The experiment in a line: BLI, 30C.
The target of assay [23] is T2, CD16b-NA1 ECD. The experiment in a line: BLI, 30C.
For assay [24], the target named is T7, CD16b-NA2 ECD deglycosylated (human).
T7 chain: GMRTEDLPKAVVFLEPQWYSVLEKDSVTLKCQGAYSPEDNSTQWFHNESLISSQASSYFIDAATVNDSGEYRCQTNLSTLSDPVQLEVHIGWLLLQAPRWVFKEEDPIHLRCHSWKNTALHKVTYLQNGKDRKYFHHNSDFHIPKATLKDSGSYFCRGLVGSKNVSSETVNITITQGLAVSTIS
The experiment in a line: ELISA.

Assay [25] deals with T2, CD16b-NA1 ECD. The experiment in a line: ELISA.
Assay [26] addresses CD16a-V ECD (human). Description: ELISA. The source holds these as a separate data set.

For orientation: Kd means the equilibrium constant for the complex coming apart.

Like-named read-outs stand apart in the source and are kept apart here.

CD16a-F D82N (human), sequence (chain, as listed by the source D82N): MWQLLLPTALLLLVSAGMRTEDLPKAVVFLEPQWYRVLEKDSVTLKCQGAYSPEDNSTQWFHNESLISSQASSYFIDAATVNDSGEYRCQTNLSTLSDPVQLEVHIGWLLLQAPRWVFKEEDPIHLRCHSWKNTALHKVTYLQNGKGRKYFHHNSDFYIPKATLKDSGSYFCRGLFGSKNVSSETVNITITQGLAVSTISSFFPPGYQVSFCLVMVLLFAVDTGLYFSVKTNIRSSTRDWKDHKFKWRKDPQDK

B1: #3A2 IgG1 (antibody)
chain 1: QLQLQESGPGLVKPSETLSLTCTVSGGSIGRGDYYWGWIRQPPGKGLEWIGTIDYSGRTYYNPSLKSRVTISVDTSKNQFSLKLSSVTAADTAVYYCARAFPGEYFGVFDHWGQGTLVTVSS
chain 2: EIVLTQSPGTLSLSPGERATLSCRASQSVSSSYLAWYQQKPGQAPRLLIYDATSRATGIPDRFSGSGSGTDFTLTISRLEPEDFAVYYCQQYDSSSLITFGQGTKVEIK
With B1, the Kd in assay [1] was 0.74 nM; in [2], 546 nM; in [3], 0.53 nM; in assay [4], 0.051 nM; in assay [5], 0.11 nM; in [6], above 1000 nM. Moreover, binding in assay [7] was put at a Kd of 0.048 nM.

B2: #6A2 IgG1 (antibody)
chain 1: QLQLQESGPGLVKPSETLSLTCTVSGGSIGRGDYYWGWIRQPPGKGLEWIGTIDYSGRTYYNPSLKSRVTISVDTSKNQFSLKLSSVTAADTAVYYCARAFPGEYFGVFDHWGQGTLVTVSS
chain 2: not shown
On to B2, for which the Kd in assay [1] worked out at 0.67 nM; in assay [2] it was 298 nM; in assay [3], 0.61 nM; in [4] it was 0.16 nM; in [5] it was 0.13 nM; in [6], 1300 nM. This molecule showed a Kd in [7] of 0.14 nM.

B3: #55 IgG1 (antibody)
chain 1: EVQLLESGGGLVQPGGSLRLSCAASGFTFSNYAMSWVRQAPGKGLEWVSAISGGGSYTYYADSVKGRFTISRDNSKNTLYLQMNSLRAEDTAVYYCARTYLRRWYYFDYWGQGTLVTVSS
chain 2: DIQMTQSPSSLSASVGDRVTITCRASQTITSYLNWYQQKPGKAPKLLIYAASSLQSGVPSRFSGSGSGTDFTLTISSLQPEDFATYYCQQSYTSPVTFGQGTKVEIK
Turning to B3, the Kd in assay [8] is 0.4 nM; in assay [9], around 200 nM; in assay [10], 6.6 nM; in assay [11], 11.2 nM; in assay [12] it was 18 nM; in assay [15], 0.28 nM. Moreover, the Kd in assay [16] amounted to 239 nM; in assay [17] it was 0.53 nM; in assay [18], 0.98 nM; in assay [20], 1 nM; in [5], 0.1 nM; in assay [22], 214 nM. The Kd came to 1 nM in assay [24], 73 nM in assay [25] and 0.85 nM in [26]. The binding result in [13], in assay [14], in assay [19], in [21] and in [23] was “no binding” in each case.
